In patent publication US20260167699A1 (Chugai, published 2026):

T1: FcγRIIa(H) extracellular domain with C-terminal His tag (human, UniProt P12318 34-217)
T1 construct: extracellular domain; H131 allotype; also called 2aH; CD32
T1 sequence: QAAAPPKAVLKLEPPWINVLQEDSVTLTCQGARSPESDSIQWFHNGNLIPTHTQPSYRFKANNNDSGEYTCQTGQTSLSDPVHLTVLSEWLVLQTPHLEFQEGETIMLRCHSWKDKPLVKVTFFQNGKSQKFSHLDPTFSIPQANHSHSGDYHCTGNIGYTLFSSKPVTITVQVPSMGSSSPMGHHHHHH

T2: FcγRIIb extracellular domain with C-terminal His tag (human, UniProt P31994 43-217)
T2 construct: extracellular domain; also called 2b; CD32
T2 sequence: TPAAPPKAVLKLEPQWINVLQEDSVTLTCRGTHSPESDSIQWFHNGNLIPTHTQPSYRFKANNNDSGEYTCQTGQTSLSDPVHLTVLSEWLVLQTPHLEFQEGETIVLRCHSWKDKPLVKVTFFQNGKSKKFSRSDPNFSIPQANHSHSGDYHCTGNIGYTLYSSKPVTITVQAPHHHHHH

T3: FcγRIIa(R) extracellular domain with C-terminal His tag (human, UniProt P12318 34-217)
T3 construct: extracellular domain; R131 allotype; also called 2aR; CD32
T3 sequence: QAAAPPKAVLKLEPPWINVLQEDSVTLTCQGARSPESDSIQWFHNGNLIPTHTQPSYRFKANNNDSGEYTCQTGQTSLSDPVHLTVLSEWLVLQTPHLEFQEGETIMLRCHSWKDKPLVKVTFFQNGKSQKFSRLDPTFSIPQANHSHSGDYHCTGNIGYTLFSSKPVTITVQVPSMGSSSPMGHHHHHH


Assays:
Assay in all cases: SPR; % of GpH7-A5/GpH7-B3/GpL16-k0
[1] = biological target: T1, FcγRIIa(H) extracellular domain with …
[2] = biological target: T4, FcγRIIIa extracellular domain with C-terminal His tag (human, UniProt P08637 17-208)
T4 construct: extracellular domain; also called 3a; CD16

[3] = biological target: T2, FcγRIIb extracellular domain with …
[4] = biological target: T3, FcγRIIa(R) extracellular domain with …
[5] = biological target: T5, FcγRIa extracellular domain with C-terminal His tag (human, UniProt P12314 16-292)
T5 construct: extracellular domain; also called 1a; CD64
T5 sequence (P12314 other isoform, or with tags, fused parts or gaps): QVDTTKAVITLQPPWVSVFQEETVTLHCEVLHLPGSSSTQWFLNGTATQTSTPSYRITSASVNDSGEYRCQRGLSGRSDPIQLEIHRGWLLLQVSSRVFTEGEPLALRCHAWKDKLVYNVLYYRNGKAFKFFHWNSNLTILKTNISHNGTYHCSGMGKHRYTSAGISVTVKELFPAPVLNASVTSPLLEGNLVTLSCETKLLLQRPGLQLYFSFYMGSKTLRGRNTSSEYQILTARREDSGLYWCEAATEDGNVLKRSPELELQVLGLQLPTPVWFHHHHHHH

T4 sequence (P08637 other isoform, or with tags, fused parts or gaps): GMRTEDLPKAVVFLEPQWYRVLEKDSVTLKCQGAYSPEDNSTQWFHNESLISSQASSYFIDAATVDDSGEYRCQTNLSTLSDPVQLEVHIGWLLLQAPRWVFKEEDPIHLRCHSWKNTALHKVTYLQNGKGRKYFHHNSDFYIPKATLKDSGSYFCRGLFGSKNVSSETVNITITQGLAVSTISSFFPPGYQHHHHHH

Binder	He/Con 2aH [1] [%]	He/Con 3a [2] [%]	He/Con 2b [3] [%]	He/Con 2aR [4] [%]	He/Con 1a [5] [%]
GpH7-A5/GpH7-B3 variant P331_18N/GpL16-k0 (antibody, human IgG1, kappa, heterodimerized IgG1 (He Ab), mutation in one H chain only; also called He Ab) heavy 1: not shown heavy 2: not shown light: DIVMTQSPLSLPVTPGEPASISCQASESLVHSNRNTYLHWYLQKPGQSPQLLIYKVSNRFSGVPDRFSGSGSGTDFTLKISRVEAEDVGVYYCSQNTHVPPTFGQGTKVEIERTVAAPSVFIFPPSDEQLKSGTASVVCLLNNFYPREAKVQWKVDNALQSGNSQESVTEQDSKDSTYSLSSTLTLSKADYEKHKVYACEVTHQGLSSPVTKSFNRGEC	87.2	67.1	110	104	106
GpH7-A5/GpH7-B3 variant S337_03V/GpL16-k0 (antibody, human IgG1, kappa, heterodimerized IgG1 (He Ab), mutation in one H chain only; also called He Ab) heavy 1: not shown heavy 2: not shown light: DIVMTQSPLSLPVTPGEPASISCQASESLVHSNRNTYLHWYLQKPGQSPQLLIYKVSNRFSGVPDRFSGSGSGTDFTLKISRVEAEDVGVYYCSQNTHVPPTFGQGTKVEIERTVAAPSVFIFPPSDEQLKSGTASVVCLLNNFYPREAKVQWKVDNALQSGNSQESVTEQDSKDSTYSLSSTLTLSKADYEKHKVYACEVTHQGLSSPVTKSFNRGEC	104	87.1	108	108	103
GpH7-A5/GpH7-B3 variant S337_04F/GpL16-k0 (antibody, human IgG1, kappa, heterodimerized IgG1 (He Ab), mutation in one H chain only; also called He Ab) heavy 1: not shown heavy 2: not shown light: DIVMTQSPLSLPVTPGEPASISCQASESLVHSNRNTYLHWYLQKPGQSPQLLIYKVSNRFSGVPDRFSGSGSGTDFTLKISRVEAEDVGVYYCSQNTHVPPTFGQGTKVEIERTVAAPSVFIFPPSDEQLKSGTASVVCLLNNFYPREAKVQWKVDNALQSGNSQESVTEQDSKDSTYSLSSTLTLSKADYEKHKVYACEVTHQGLSSPVTKSFNRGEC	105	94.4	107	106	103
GpH7-A5/GpH7-B3 variant S337_10E/GpL16-k0 (antibody, human IgG1, kappa, heterodimerized IgG1 (He Ab), mutation in one H chain only; also called He Ab) heavy 1: not shown heavy 2: not shown light: DIVMTQSPLSLPVTPGEPASISCQASESLVHSNRNTYLHWYLQKPGQSPQLLIYKVSNRFSGVPDRFSGSGSGTDFTLKISRVEAEDVGVYYCSQNTHVPPTFGQGTKVEIERTVAAPSVFIFPPSDEQLKSGTASVVCLLNNFYPREAKVQWKVDNALQSGNSQESVTEQDSKDSTYSLSSTLTLSKADYEKHKVYACEVTHQGLSSPVTKSFNRGEC	109	97.8	117	114	103
GpH7-A5/GpH7-B3 variant P331_19Q/GpL16-k0 (antibody, human IgG1, kappa, heterodimerized IgG1 (He Ab), mutation in one H chain only; also called He Ab) heavy 1: not shown heavy 2: not shown light: DIVMTQSPLSLPVTPGEPASISCQASESLVHSNRNTYLHWYLQKPGQSPQLLIYKVSNRFSGVPDRFSGSGSGTDFTLKISRVEAEDVGVYYCSQNTHVPPTFGQGTKVEIERTVAAPSVFIFPPSDEQLKSGTASVVCLLNNFYPREAKVQWKVDNALQSGNSQESVTEQDSKDSTYSLSSTLTLSKADYEKHKVYACEVTHQGLSSPVTKSFNRGEC	91.6	73.9	94	96.1	108
GpH7-A5/GpH7-B3 variant P331_20W/GpL16-k0 (antibody, human IgG1, kappa, heterodimerized IgG1 (He Ab), mutation in one H chain only; also called He Ab) heavy 1: not shown heavy 2: not shown light: DIVMTQSPLSLPVTPGEPASISCQASESLVHSNRNTYLHWYLQKPGQSPQLLIYKVSNRFSGVPDRFSGSGSGTDFTLKISRVEAEDVGVYYCSQNTHVPPTFGQGTKVEIERTVAAPSVFIFPPSDEQLKSGTASVVCLLNNFYPREAKVQWKVDNALQSGNSQESVTEQDSKDSTYSLSSTLTLSKADYEKHKVYACEVTHQGLSSPVTKSFNRGEC	85.8	71.9	123	109	107
GpH7-A5/GpH7-B3 variant S337_18N/GpL16-k0 (antibody, human IgG1, kappa, heterodimerized IgG1 (He Ab), mutation in one H chain only; also called He Ab) heavy 1: not shown heavy 2: not shown light: DIVMTQSPLSLPVTPGEPASISCQASESLVHSNRNTYLHWYLQKPGQSPQLLIYKVSNRFSGVPDRFSGSGSGTDFTLKISRVEAEDVGVYYCSQNTHVPPTFGQGTKVEIERTVAAPSVFIFPPSDEQLKSGTASVVCLLNNFYPREAKVQWKVDNALQSGNSQESVTEQDSKDSTYSLSSTLTLSKADYEKHKVYACEVTHQGLSSPVTKSFNRGEC	106	96.9	113	108	102
GpH7-A5/GpH7-B3 variant S337_09D/GpL16-k0 (antibody, human IgG1, kappa, heterodimerized IgG1 (He Ab), mutation in one H chain only; also called He Ab) heavy 1: not shown heavy 2: not shown light: DIVMTQSPLSLPVTPGEPASISCQASESLVHSNRNTYLHWYLQKPGQSPQLLIYKVSNRFSGVPDRFSGSGSGTDFTLKISRVEAEDVGVYYCSQNTHVPPTFGQGTKVEIERTVAAPSVFIFPPSDEQLKSGTASVVCLLNNFYPREAKVQWKVDNALQSGNSQESVTEQDSKDSTYSLSSTLTLSKADYEKHKVYACEVTHQGLSSPVTKSFNRGEC	114	102	124	117	102
GpH7-A5/GpH7-B3 variant S337_12R/GpL16-k0 (antibody, human IgG1, kappa, heterodimerized IgG1 (He Ab), mutation in one H chain only; also called He Ab) heavy 1: not shown heavy 2: not shown light: DIVMTQSPLSLPVTPGEPASISCQASESLVHSNRNTYLHWYLQKPGQSPQLLIYKVSNRFSGVPDRFSGSGSGTDFTLKISRVEAEDVGVYYCSQNTHVPPTFGQGTKVEIERTVAAPSVFIFPPSDEQLKSGTASVVCLLNNFYPREAKVQWKVDNALQSGNSQESVTEQDSKDSTYSLSSTLTLSKADYEKHKVYACEVTHQGLSSPVTKSFNRGEC	105	92.7	108	109	103
GpH7-A5/GpH7-B3 variant T335_01G/GpL16-k0 (antibody, human IgG1, kappa, heterodimerized IgG1 (He Ab), mutation in one H chain only; also called He Ab) heavy 1: not shown heavy 2: not shown light: DIVMTQSPLSLPVTPGEPASISCQASESLVHSNRNTYLHWYLQKPGQSPQLLIYKVSNRFSGVPDRFSGSGSGTDFTLKISRVEAEDVGVYYCSQNTHVPPTFGQGTKVEIERTVAAPSVFIFPPSDEQLKSGTASVVCLLNNFYPREAKVQWKVDNALQSGNSQESVTEQDSKDSTYSLSSTLTLSKADYEKHKVYACEVTHQGLSSPVTKSFNRGEC	107	95.1	106	110	108
GpH7-A5/GpH7-B3 variant S337_02A/GpL16-k0 (antibody, human IgG1, kappa, heterodimerized IgG1 (He Ab), mutation in one H chain only; also called He Ab) heavy 1: not shown heavy 2: not shown light: DIVMTQSPLSLPVTPGEPASISCQASESLVHSNRNTYLHWYLQKPGQSPQLLIYKVSNRFSGVPDRFSGSGSGTDFTLKISRVEAEDVGVYYCSQNTHVPPTFGQGTKVEIERTVAAPSVFIFPPSDEQLKSGTASVVCLLNNFYPREAKVQWKVDNALQSGNSQESVTEQDSKDSTYSLSSTLTLSKADYEKHKVYACEVTHQGLSSPVTKSFNRGEC	103	92.4	106	107	102
GpH7-A5/GpH7-B3 variant S337_06M/GpL16-k0 (antibody, human IgG1, kappa, heterodimerized IgG1 (He Ab), mutation in one H chain only; also called He Ab) heavy 1: not shown heavy 2: not shown light: DIVMTQSPLSLPVTPGEPASISCQASESLVHSNRNTYLHWYLQKPGQSPQLLIYKVSNRFSGVPDRFSGSGSGTDFTLKISRVEAEDVGVYYCSQNTHVPPTFGQGTKVEIERTVAAPSVFIFPPSDEQLKSGTASVVCLLNNFYPREAKVQWKVDNALQSGNSQESVTEQDSKDSTYSLSSTLTLSKADYEKHKVYACEVTHQGLSSPVTKSFNRGEC	104	89.7	106	107	104
GpH7-A5/GpH7-B3 variant S337_01G/GpL16-k0 (antibody, human IgG1, kappa, heterodimerized IgG1 (He Ab), mutation in one H chain only; also called He Ab) heavy 1: not shown heavy 2: not shown light: DIVMTQSPLSLPVTPGEPASISCQASESLVHSNRNTYLHWYLQKPGQSPQLLIYKVSNRFSGVPDRFSGSGSGTDFTLKISRVEAEDVGVYYCSQNTHVPPTFGQGTKVEIERTVAAPSVFIFPPSDEQLKSGTASVVCLLNNFYPREAKVQWKVDNALQSGNSQESVTEQDSKDSTYSLSSTLTLSKADYEKHKVYACEVTHQGLSSPVTKSFNRGEC	98.7	95.2	100	101	103
